In US11732048B2, “Anti-axl antagonistic antibodies” (BERGEN TEKNOLOGIOVERFØRING AS, priority 2016, dated 2023):
“Also recorded” adds a separate entry of the source.

Legend:
[1] = tested on: Axl-dependent phosphorylation of Akt in LX2 cells; test: Axl-dependent AKT activation (pAkt Ser473 Western blot) in LX2 cells; assay type: cell-based, human
Method: Activation of Axl by Gas6 or cross-linking antibodies leads to phosphorylation of Akt.
Effect of Axl blocking antibodies in blocking Axl-dependent AKT activation in LX2 cells: • Cells were seeded in 12-well/plate (2×10^5 cells/well) in DMEM/10% FBS and allowed to attach and grow for >24 h. […] Axl activation was read out via phosphorylation of Akt on serine 473 (Western blot).
Protein Analysis: • Cells were lysed in RIPA buffer (150 mM NaCl, 1.0% IGEPAL® CA-630, 0.5% sodium deoxycholate, 0.1% SDS, 50 mM Tris, pH 8.0., SIGMA-ALDRICH) supplemented with antiproteases and anti-phosphatases (PMSF, sodium orthovanadate, protease inhibitor cocktail, and sodium fluoride), adjusted to 1× Laemmli loading buffer, sonicated, and centrifuged. 20-30 μl of the samples were subjected to 8% sodium dodecyl sulphate-polyacrylamide gel electrophoresis and then transferred to nitrocellulose membranes. Membranes were blocked in 5% BSA-FAF and washed in TBS Tween buffer and then developed with Pierce-ECL western blotting Substrate. • The antibodies used were p-AKT (p-Akt1/2/3 (C-11)), 1:200 in 5% BSA/TBS-T, o/n at 4° C.; AKT (1:200), followed by anti-mouse m-IgGκ BP-HRP (1:2000, 1 h, RT); anti-AKT (Akt1/2/3 (H-136)), 1:400, 1 h, RT followed by anti-rabbit-IgG-HRP (1:20000, 1 h, RT).
Activation of Axl is often achieved by treating Axl with its ligand, Gas6. […]

[2] = tested on: Axl autophosphorylation (Tyrosine 866) in HeLa cells; test: Phospho-Axl (Y866) ELISA on HeLa cell lysates; assay type: cell-based, human
Method: To assess the level to which various Axl inhibitors reduce activation of Axl, as assessed through on of inhibition of Tyrosine 866 (Y866), one of Axl's known autophosphorylation sites (others include Y779 and Y821—see Oncotarget. 2014 October; 5(20): 9546-9563; doi: 10.18632/oncotarget.2542 and references cited therein).
Lysate Preparation • 1. Seed out HeLa cells in 14 10-cm dishes • a. 3 million cells per dish • 2. Incubate cells until attached • 3. Remove medium and wash cells with PBS • 4. Serum-starve the cells in 0.5% FBS media • a. 0.5% MEM for HeLa • b. O/N, at least 24 hour starvation • 5. Incubate cells with anti-Axl antibodies for 1 hour in 6 ml fresh 0.5% MEM. • a. BGB324 (CAS=1037624-75-1, UNII=0ICW2LX8AS): 0.2 uM • b. H2L1-Evitra*: 50 ug/ml • c. H2L1-Catalent*: 50 ug/ml • d. YW327.6S2: 50 ug/ml • *same sequence, different preparation • 6. Stimulate designated plates with 0.01 ug/ml rhGas6 in 6 ml of total media per 10-cm dish. • a. rhGas6 stimulation 0.01 ug/ml • 7. Set-up: Make each in 26 ml of 0.5% MEM • #1. Starvation • #2. rhGas6 stimulation (0.01 ug/ml) • #3. rhGas6 stimulation+pre-incubation with BGB324 0.2 uM • #4. rhGas6 stimulation+pre-incubation with H2L1-Evitra: 50 ug/ml • #5. rhGas6 stimulation+pre-incubation with H2L1-Catalent: 50 ug/ml • #6. rhGas6 stimulation+pre-incubation with YW327.6S2 50 ug/ml • #7. BGB324 0.2 uM alone • #8. H2L1-Evitra: 50 ug/ml alone • #9. H2L1-Catalent: 50 ug/ml alone • #10. YW327.6S2 50 ug/ml alone • 8. Stop reaction by lysing cells on ice • 9. Wash with cold PBS • 10. Add RIPA buffer (plus phosphatase inhibitors) • a. 100 ul/dish • 11. Scrape cells from dish • 12. Incubate 5-10 min on ice • 13. Spin down 13,000 rpm 5-10 min (cold) • 14. Supernatant transferred to fresh tube • 15. Measure phospho-protein by ELISA […]
Materials • Nunc MaxiSorp 96C plates • Tris-buffered saline (TBS) pH7.6 • Tween 20 (Sigma) • Wash buffer (TBS+0.05% Tween 20) • Fetal bovine serum (FBS) (Sigma) • Monoclonal mouse anti-HsAxl antibody 5F11, 3.6 mg/ml stock (BerGenBio). • Polyclonal rabbit anti-Hs-phospho-Y866 Axl antibody pAxl-Y866-16, 1.0 mg/ml (BerGenBio). […] For HeLa cells total protein concentration 1.5 mg/ml gives a strong signal. • Microplate reader with 450 nm absorbance. Absorbance at 595 nm (if available) should be subtracted to reduce background, but the effect is marginal. […]
Develop • Prepare fresh substrate solution: • 100 μl 10 mg/ml TMB stock solution • 10 μl 30% Hydrogen peroxide solution • 9.9 ml 100 mM Sodium acetate pH6 • Optional: test a small volume of the substrate solution by adding 1 μl leftover HRP-conjugated detection antibody mixture (step 12). […] Read plate on microplate reader with absorbance of 450 nm.

A549 tumours = test: A549 human NSCLC xenograft in mice (Examples 14, 16, 17, 18); assay type: in vivo, mouse; settings: SCID mice, 30 mg/kg i.p. twice weekly, after two weeks of treatment, versus control (SYNAGIS)
Text: SCID mice were implanted subcutaneously (s.c.) into the flank with 5×10^6 A549 cells resuspended in serum-free medium/Matrigel (1:1).

[3] = molecular target: T1, Hs-Axl-Fc (immobilized Axl-Fc) (Homo sapiens, UniProt P30530); test: Biacore binding competition assays, two injections (Example 22); settings: Gas6 10 μg/mL as first protein
T1 construct: Fc
Text: Sensor chip with immobilised Axl: Hs-Axl-Fc (638.2 RU), Mm-Axl-Fc (334.5 RU), Rhe-Axl-Fc (350.2 RU)
In this experiment, a first antibody was allowed to bind to saturation. A second antibody was then applied and its ability to bind was monitored.
If the second antibody recognizes the same (or overlapping) epitope as the first antibody then binding will be blocked. If the second antibody recognizes a different epitope then binding will be detected at the same level as if no first antibody was present.
The ability of Gas6 to block antibody binding was also tested, using Gas6 at 10 μg/mL in HBS-EP.
All tests were performed in parallel on Hs-Axl-Fc, Mm-Axl-Fc and Rhe-Axl-Fc surfaces.
See FIG. 1 for a list of the pairs that were tested (in this list Contr-1 is incorrectly labeled YW367 instead of YW327.6S2var). All antibodies were at 25 μg/mL in HBS-EP.
• 2. Perform Biacore experiments at 25° C. • 3. In the instrument control software choose Direct Binding, and select settings for two injections as shown below. • 4. […] Store the template & the result file, start the analysis.

[4] = molecular target: T2, human Axl (rhAxl-Fc chimera) (Homo sapiens, UniProt P30530); test: Biacore kinetic analysis (surface plasmon resonance) on immobilised rhAxl-Fc; assay type: binding
T2 construct: Soluble recombinant antigens corresponding to the extracellular domains of members of the human TAM receptor family; Fc; purchased R&D Systems 154-AL
Method: Kinetic analysis of murine MAb 10G5 interacting with rhAxl immobilized on the surface of the Biacore sensor chip. Overlay plots of sensograms for different antibody concentrations (0.3-166.7 nM for murine 10G5) are shown. The precise kinetic analysis was performed using BIA evaluation software and curve fitting according to 1:1 Langmuir binding model. […]
Affinity determination of anti-Axl antibody 10G5 was performed at 25° C. by surface plasmon resonance measurements using Biacore 3000 instrument (GE Healthcare). As a solid antigen-coated surface, a sensor chip CM5 with immobilized rhAxl-Fc chimera (R&D Systems, Cat. no. 154-AL) at density 190 RU was used.
For the kinetics measurements, different concentrations of anti-Axl antibodies (from 0.3 to 666.7 nM) in HBS-EP buffer (Biacore, Cat. no. BR-1001-88) were injected at flow rate of 30 μL/min with 3 min injection time followed by 5 min dissociation (buffer alone). After each cycle, the surface was regenerated by 30 sec injection of a regeneration solution (10 mM HCl, 1 M NaCl) at flow rate 50 μL/min.
The kinetic association (on-rate, kon) and dissociation (off-rate, koff) rates were calculated using BIAevaluation software and 1:1 Langmuir binding model. The equilibrium dissociation constant (KD) was calculated as the koff/kon ratio. The half-life (t1/2) of the formed antibody-antigen complexes was calculated as the ln 2/koff ratio. […]

[5] = agent alone, starved HeLa (antibodies 50 ug/ml, BGB324 0.2 uM, rhGas6 0.01 ug/ml)
[6] = rhGas6 0.01 ug/ml stimulation after 1 hour pre-incubation (antibodies 50 ug/ml, BGB324 0.2 uM), starved HeLa
[7] = rhAxl immobilized on Biacore sensor chip, 25° C., 1:1 Langmuir binding model

Row | Molecule | Inhibition of 1H12-stimulated pAkt ([1]; FIG. 22B) | Absorbance @ 450 nm (pAxl reading) [2, 5] | Absorbance @ 450 nm (pAxl reading) [2, 6] | Stimulation of Akt phosphorylation ([1]; FIG. 22A, Gas6 versus cross-linking 1H12) | Inhibition of A549 tumour growth (A549 tumours) | Effect of Gas6 bound first on subsequent binding of the antibody [3] | Effect of Gas6 bound first on subsequent binding of the antibody ([3]; listed as 1H21L1) | KD lower than that of the chimeric antibody ([4]; comparison referring to Table 3) | Off-rate (koff) [4, 7] | On-rate (kon) [4, 7]
1 | Nc1nc(Nc2ccc3c(c2)CC[C@@H](N2CCCC2)CC3)nn1-c1cc2c(nn1)-c1ccccc1CCC2 [BGB324, 1-(6,7-dihydro-5H-benzo[6,7]cyclohepta[1,2-c]pyridazin-3-yl)-N3-((7-(S)-pyrrolidin-1-yl)-6,7,8,9-tetrahydro-5H-benzo[7]annulene-2-yl)-1H-1,2,4-triazole-3,5-diamine, reference compound] | can be inhibited; also recorded: clear response | 0.039 | 0.045 |  |  |  |  |  |  | 
2 | rhGas6: recombinant human Gas6, Axl ligand (protein, listed as Homo sapiens, (1)..(678) Homo sapiens Gas6) MAPSLSPGPAALRRAPQLLLLLLAAECALAALLPAREATQFLRPRQRRAFQVFEEAKQGHLERECVEELCSREEAREVFENDPETDYFYPRYLDCINKYGSPYTKNSGFATCVQNLPDQCTPNPCDRKGTQACQDLMGNFFCLCKAGWGGRLCDKDVNECSQENGGCLQICHNKPGSFHCSCHSGFELSSDGRTCQDIDECADSEACGEARCKNLPGSYSCLCDEGFAYSSQEKACRDVDECLQGRCEQVCVNSPGSYTCHCDGRGGLKLSQDMDTCEDILPCVPFSVAKSVKSLYLGRMFSGTPVIRLRFKRLQPTRLVAEFDFRTFDPEGILLFAGGHQDSTWIVLALRAGRLELQLRYNGVGRVTSSGPVINHGMWQTISVEELARNLVIKVNRDAVMKIAVAGDLFQPERGLYHLNLTVGGIPFHEKDLVQPINPRLDGCMRSWNWLNGEDTTIQETVKVNTRMQCFSVTERGSFYPGSGFAFYSLDYMRTPLDVGTESTWEVEVVAHIRPAADTGVLFALWAPDLRAVPLSVALVDYHSTKKLKKQLVVLAVEHTALALMEIKVCDGQEHVVTVSLRDGEATLEVDGTRGQSEVSAAQLQERLAVLERHLRSPVLTFAGGLPDVPVTSAPVTAFYRGCMTLEVNRRLLDLDEAAYKHSDITAHSCPPVEPAAA |  | 0.077 |  | weaker |  |  |  |  |  | 
3 | H2L1: humanised variant of 10G5; presumably VH GH2 (SEQ ID NO: 2) with VL GL1 (SEQ ID NO: 3) (antibody, V domains shown, hu10G5 VH(GH2); hu10G5 VL(GL1)) VH: EVQLVESGGGLVQPGGSLRLSCAASGYSFTDFYINWVRQAPGKGLEWVARIFPGGDNTYYNEKFKGRFTLSADTSKSTAYLQMNSLRAEDTAVYYCARRGLYYAMDYWGQGTLVTVSS VL: DIQMTQSPSSLSASVGDRVTITCRSSQSLVHSNGIPYLHWYQQKPGKAPKLLIYRVSNRFSGVPSRFSGSGSGTDFTLTISSLQPEDFATYYCSQGTHVPPTFGQGTKVEIK |  |  | 0.055 |  | around 25% | inhibited | blocks binding | at least 50% | 0.000142 s⁻¹ | 2.07e+06 M⁻¹ s⁻¹
